Here are results for 167 variants from the RNAGym collection of RNA variant scans (doi:10.7554/elife.80360).

B1: CPEB3 Ribozyme (parent)
chain: GGGGGCCACAGCAGAAGCGUUCACGUCGCGGCCCCUGUCAGAUUCUGGUGAAUCUGCGAAUUCUGCUGU

Variants of B1 are the subject of this series. Nature of the series: self-cleavage, relative activity (ratio to wild type); higher = more cleavage; co-transcriptional.
For the variant G28U C35G, the self-cleavage was found to be 0.14.
To G28C G41U belongs 0.152; to G28C G41A, 0.201.
Consider G28C G41C, for which the self-cleavage was determined as 0.178.
To C29A C33A belongs 0.373.
Turning to G28A G41C, the self-cleavage turned out to be 0.177.
For the variant G28A A42U, the self-cleavage came to 0.137.
To G28A A42G belongs 0.131; to G28A A42C, 0.177; to G28U U38C, 0.136.
In the case of G28U U38G it was 0.161.
In the case of G28U U38A it was 0.164; in that of C27U U53C, 0.169; in that of G28A G58U, 0.2.
Consider G28A G58A, for which the self-cleavage was found to be 0.189.
To G28A G58C belongs 0.231; to G28A C45G, 0.196; to G28A C45A, 0.184.
To G28A C33U belongs 0.22; to G28A C33G, 0.195; to G28A C33A, 0.18.
In the case of G28A C54G it was 0.177; in that of G28A C54U, 0.194; in that of G28U U69G, 0.254.
G28A U69C: the self-cleavage was found to be 0.412.
Regarding G28A U69G, the self-cleavage turned out to be 0.357.
Turning to G28A U69A, the self-cleavage was 0.342.
To G28C U62C belongs 0.136.
In the case of G28C U62A it was 0.194.
To G28C G48A belongs 0.195; to G28C G48U, 0.202.
In the case of G28U U36C, the self-cleavage was 0.135.
To C27U C39G belongs 0.164; to G28A U36C, 0.128; to G28A U36G, 0.133.
Consider C27U G58U, for which the self-cleavage came out at 0.526.
Regarding C27U G58A, the self-cleavage turned out to be 0.237.
To C27U G58C belongs 0.351; to G28A G56C, 0.235.
With G28A G56U, the self-cleavage came to 0.167.
In the case of G28A G56A it was 0.164.
In the case of G28A G30C it was 0.167.
In the case of C27U U64C it was 0.245; in that of C27U U64G, 0.197.
For the variant G28A U43C, the self-cleavage stood at 0.219.
For the variant G28A U43G, the self-cleavage stood at 0.0959.
To G28A U43A belongs 0.156; to C27U U55C, 0.143; to C27U U55A, 0.184.
In the case of G28C U61C it was 0.134; in that of G28A U67G, 0.232.
Take G28A U67A: the self-cleavage was found to be 0.202.
Take G28A U67C: the self-cleavage is 0.307.
In the case of G28U C33G it was 0.196; in that of G28U C33A, 0.21.
Regarding C27U G47C, the self-cleavage was 0.436.
In the case of C27U G47U it was 0.431; in that of G28C C54G, 0.155; in that of G28C C54U, 0.218.
On to G28C C57G, for which the self-cleavage came out at 0.191.
In the case of G28C C57A it was 0.207.
As for G28C C57U, the self-cleavage was 0.23.
To G28U C66G belongs 0.16.
G28U C66U: the self-cleavage came to 0.168.
G28U C66A: the self-cleavage is 0.153.
In the case of C27U U36G it was 0.188.
To C27U U36A belongs 0.167; to G28A C63A, 0.182.
To G28A C63G belongs 0.178.
As for C27U C63U, the self-cleavage was 0.17.
Turning to G28A G50A, the self-cleavage stood at 0.195.
In the case of G28A G50U it was 0.159; in that of G28C G37A, 0.117.
In the case of G28C G37C it was 0.186; in that of G28C G37U, 0.129.
To G28A G65C belongs 0.172; to G28A A52G, 0.234; to G28U A52U, 0.198.
Regarding G28U A52C, the self-cleavage is 0.132.
In the case of C29A C35G it was 0.276; in that of C29A C35U, 0.496; in that of G28A U49G, 0.22.
As for G28A U49C, the self-cleavage turned out to be 0.238.
In the case of G28A U53G it was 0.203.
In the case of G28A U53C it was 0.154; in that of G28U U53G, 0.22; in that of G28U U53A, 0.188.
In the case of G28U A51G it was 0.196.
G28U A51C: the self-cleavage stood at 0.157.
As for G28C A52U, the self-cleavage turned out to be 0.197.
With G28C U44C, the self-cleavage came out at 0.223.
To G28C U44A belongs 0.157.
To G28U U61C belongs 0.11.
In the case of G28U U61G, the self-cleavage is 0.221.
To C29A A59G belongs 0.715.
To G28C U36C belongs 0.147; to G28C U36G, 0.189.
With G28C U36A, the self-cleavage worked out at 0.162.
Regarding C27U C54U, the self-cleavage is 0.328.
To C27U C54G belongs 0.195; to C27U C54A, 0.18; to G28U C57U, 0.213.
In the case of G28C C39G it was 0.198; in that of G28A C66G, 0.196; in that of C27U G65C, 0.196.
To C27U G65A belongs 0.172; to C27U G65U, 0.148; to G28U A42G, 0.112.
Turning to G28U A42U, the self-cleavage is 0.149.
On to C27U U43A, for which the self-cleavage turned out to be 0.188.
In the case of C27U U43G it was 0.14; in that of C29A A51U, 0.646; in that of C29A A51G, 0.706.
Regarding G28U A59G, the self-cleavage was determined as 0.23.
On to G28U A59U, for which the self-cleavage worked out at 0.16.
In the case of C27U G56C it was 0.194; in that of C27U G56A, 0.308.
To G28C C45G belongs 0.208.
In the case of G28C U55C it was 0.162; in that of G28C U55G, 0.117.
Take G28U U49A: the self-cleavage came out at 0.166.
For the variant G28U U49C, the self-cleavage is 0.178.
To G28U U49G belongs 0.11.
In the case of C27U G28C it was 0.218.
To C27U G28U belongs 0.187.
With C29A, the self-cleavage was determined as 0.777.
In the case of G28C C35A it was 0.176.
To G28C C35U belongs 0.178; to C27U G37C, 0.147.
As to C27U G37U, the self-cleavage worked out at 0.0803.
To G28U U44G belongs 0.175; to C29A C45U, 0.731; to G28A U64A, 0.245.
To G28A C57U belongs 0.137; to G28A C57A, 0.136.
As for G28A C57G, the self-cleavage is 0.17.
As for G28U G68C, the self-cleavage is 0.243.
To G28A U62A belongs 0.203; to G28A U62C, 0.218; to G28U G65C, 0.132.
In the case of G28C U53C, the self-cleavage was 0.145.
To G28C U53G belongs 0.196; to G28C U53A, 0.156; to G28C C33U, 0.165.
With G28C C33A, the self-cleavage is 0.115.
In the case of C29A C34A it was 0.334; in that of C29A C34U, 0.702.
To C29A C34G belongs 0.22.
In the case of G28U U64G it was 0.147; in that of G28U U64A, 0.157.
Consider G28U G58C, for which the self-cleavage came out at 0.177.
In the case of G28U G58A, the self-cleavage worked out at 0.185.
In the case of C27U U62A, the self-cleavage was determined as 0.217.
With C27U U44A, the self-cleavage was determined as 0.292.
As to C27U U44C, the self-cleavage was found to be 0.15.
To C27U U44G belongs 0.198; to G28C U38C, 0.199; to G28A C34A, 0.218.
To G28U C34A belongs 0.181; to C27U G50A, 0.371.
Take C27U G50U: the self-cleavage came out at 0.396.
In the case of C29A A52G it was 0.77.
In the case of C29A A52U it was 0.671; in that of C29A A52C, 0.64; in that of G28U G31C, 0.141.
Turning to G28U G31U, the self-cleavage turned out to be 0.171.
In the case of G28U G48A it was 0.255.
